# Test results: patent US20140120555A1 (PIERRE FABRE MEDICAMENT, published 2014)
# T1: Recombinant mouse FcγRI [CD64], Gln25-Pro297 with C-terminal 6-His tag (mouse, UniProt P26151 25-297)
# T1 construct: range 25-297; Soluble form bought from R&D Systems; also called m-FcγRI
# T1 sequence: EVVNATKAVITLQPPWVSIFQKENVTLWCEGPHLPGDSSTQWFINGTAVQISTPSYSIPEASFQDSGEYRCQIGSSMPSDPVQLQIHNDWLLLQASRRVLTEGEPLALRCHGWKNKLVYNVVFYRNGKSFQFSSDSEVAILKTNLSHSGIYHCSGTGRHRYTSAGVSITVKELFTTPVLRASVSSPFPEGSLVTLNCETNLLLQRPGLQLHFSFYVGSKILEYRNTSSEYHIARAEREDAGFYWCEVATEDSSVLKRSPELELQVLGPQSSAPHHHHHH
# T2: Recombinant mouse FcγRIII [CD16], Ala31-Thr215 with C-terminal 10-His tag (mouse, UniProt P08508 31-215)
# T2 construct: Soluble form bought from R&D Systems; also called m-FcγRIII
# T2 sequence: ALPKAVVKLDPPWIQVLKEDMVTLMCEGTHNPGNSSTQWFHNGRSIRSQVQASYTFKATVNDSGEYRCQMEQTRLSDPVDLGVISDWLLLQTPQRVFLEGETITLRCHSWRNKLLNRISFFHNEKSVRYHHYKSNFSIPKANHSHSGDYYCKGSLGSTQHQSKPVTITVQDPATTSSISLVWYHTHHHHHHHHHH
# What was measured:
# [1] = target: T1, Recombinant mouse FcγRI [CD64], …; test: SPR (Biacore X), Mab on CM4 chip, m-FcγRI as analyte, heterogeneous ligand model, minor component; minor component (19%), lower end
# Method: (§1) 2017 RU of c515H7 Mab were immobilized using the amine coupling kit chemistry on the second flowcell (FC2) of a CM4 sensorchip. The first flowcell (FC1) activated by NHS and EDC mixture and des-activated by ethanolamine served as the reference surface to check and subtract the non specific interaction between the analyte (Fc gamma receptors) and the sensorchip matrix.
# (§2) The kinetic experiments were carried out at 25° Celsius at a flow rate of 30 μl/min. The HBS-EP buffer was used either as the running buffer or for the preparation of analyte solutions. The analyte solutions were injected during 90 seconds (association phase) with a 90 seconds delay (dissociation phase). An injection of running buffer as analyte was used as a double reference. All the sensorgrams were corrected by this double reference sensorgram.
# According to this model, the c515H7 Mab Fc domain may be regarded as a mixture of two components.
# [2] = target: T3, Recombinant human FcγRIIIA variant V [CD16a], Gln17-Gln208 with C-terminal 6-His tag (human, UniProt P08637 17-208); test: SPR (Biacore X), Mab on CM4 chip, h-FcγRIIIA as analyte, heterogeneous ligand model, major component
# T3 construct: range 17-208; 'variant V' is given without a position, so no substitution is written; also called h-FcγRIIIA
# T3 sequence (P08637 other isoform, or with tags, fused parts or gaps mutant limits assumed, form in doubt): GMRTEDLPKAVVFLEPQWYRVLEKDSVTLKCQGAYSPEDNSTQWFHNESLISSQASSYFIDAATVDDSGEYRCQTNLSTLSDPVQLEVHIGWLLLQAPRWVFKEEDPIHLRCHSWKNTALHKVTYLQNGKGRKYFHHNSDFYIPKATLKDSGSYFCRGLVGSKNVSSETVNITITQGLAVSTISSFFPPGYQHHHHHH
# [3] = target: T3, Recombinant human FcγRIIIA variant V …; test: SPR (Biacore X), Mab on CM4 chip, h-FcγRIIIA as analyte, heterogeneous ligand model, minor component
# [4] = target: T3, Recombinant human FcγRIIIA variant V …; test: SPR (Biacore X): h-FcγRIIIA injected over c515H7 Mab immobilized on a CM4 sensorchip; Langmuir model
# Method: as §1, §2
# (§3) After each injection of the analyte, the sensorchip was regenerated by injection of 20 mM NaOH, 75 mM NaCl solution.
# [5] = target: T3, Recombinant human FcγRIIIA variant V …; test: SPR (Biacore X), steady-state analysis, response at end of association versus h-FcγRIIIA concentration
# [6] = target: T1, Recombinant mouse FcγRI [CD64], …; test: SPR (Biacore X), steady-state analysis, response at end of association versus m-FcγRI concentration
# [7] = target: T4, Recombinant human FcγRI [CD64], Gln16-Pro288 with C-terminal 6-His tag (human, UniProt P12314 16-288); test: SPR (Biacore X), Mab amine-coupled on CM4 chip, h-FcγRI as analyte, Langmuïr model
# T4 construct: range 16-288; Soluble form bought from R&D Systems; also called h-FcγRI
# T4 sequence (P12314 other isoform, or with tags, fused parts or gaps limits assumed): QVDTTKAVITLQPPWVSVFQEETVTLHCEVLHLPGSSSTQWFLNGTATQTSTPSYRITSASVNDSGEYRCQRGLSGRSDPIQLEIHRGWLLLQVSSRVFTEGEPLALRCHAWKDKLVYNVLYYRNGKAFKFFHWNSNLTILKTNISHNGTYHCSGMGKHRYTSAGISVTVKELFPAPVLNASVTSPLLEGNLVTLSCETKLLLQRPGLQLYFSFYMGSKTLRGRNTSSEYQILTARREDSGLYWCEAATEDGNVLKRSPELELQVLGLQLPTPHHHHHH
# [8] = target: T2, Recombinant mouse FcγRIII [CD16], …; test: SPR (Biacore X), Mab on CM4 chip, m-FcγRIII as analyte, Langmuïr model
# Method: as §1, §2, §3
# [9] = target: T2, Recombinant mouse FcγRIII [CD16], …; test: SPR (Biacore X): m-FcγRIII injected over c515H7 Mab immobilized on a CM4 sensorchip; Langmuir model
# Method: as §1, §2, §3
# [10] = target: T1, Recombinant mouse FcγRI [CD64], …; test: SPR (Biacore X): m-FcγRI injected over hz515H7VH1D76NVL2 Mab immobilized on a CM4 sensorchip; heterogeneous ligand model, minor component (18%)
# Method: as §1, with “1964” for “2017”, “hz515H7VH1D76NVL2” for “c515H7”
# as §2
# (§4) After each injection of the analyte, the sensorchip was regenerated by injection of either 20 mM NaOH solution after h-FcγRI and m-FcγRIII or 10 mM NaOH after h-FcγRIIIA and m-FcγRI.
# [11] = target: T3, Recombinant human FcγRIIIA variant V …; test: SPR (Biacore X): h-FcγRIIIA injected over hz515H7VH1D76NVL2 Mab immobilized on a CM4 sensorchip; Langmuir model
# Method: as §1, with “1964” for “2017”, “hz515H7VH1D76NVL2” for “c515H7”
# as §2, §4
Kd [1],Kd [2],Kd [3],Kd [4],koff [4],kon [4],Kd [5],Kd [6],Kd [7],Kd [8],Kd [9],koff [9],kon [9],Kd [10],koff [10],kon [10],Kd [11],koff [11],kon [11],Binder
32 to 37 nM,380 to 450 nM,32 to 37 nM,63.8 nM,0.0263 s⁻¹,412000 M⁻¹ s⁻¹,160 nM,107 nM,1.2 nM,~20 nM,20.9 nM,0.00442 s⁻¹,211000 M⁻¹ s⁻¹,–,–,–,–,–,–,"chimeric antibody c515H7 (antibody, human IgG1, kappa, Human IgG1/kappa constant domains; also called c515H7 Mab; chimeric 515H7) heavy: not shown light: DIVMSQSPSSLAVSAGEKVTMSCKSSQSLFNSRTRKNYLAWYQQKPGQSPKLLIYWASARDSGVPARFTGSGSETYFTLTISRVQAEDLAVYYCMQSFNLRTFGGGTKLEIKRTVAAPSVFIFPPSDEQLKSGTASVVCLLNNFYPREAKVQWKVDNALQSGNSQESVTEQDSKDSTYSLSSTLTLSKADYEKHKVYACEVTHQGLSSPVTKSFNRGEC"
–,300 to 350 nM,27 to 32 nM,–,–,–,176 nM,95 nM,0.9 nM,–,–,–,–,90.9 nM,0.022 s⁻¹,242000 M⁻¹ s⁻¹,75.2 nM,0.0351 s⁻¹,467000 M⁻¹ s⁻¹,"humanized antibody Hz515H7 VH1 D76N VL2 (antibody, human IgG1, kappa, IgG1/kappa; also called hz515H7VL2; hz515H7-1) heavy: not shown light: DIVMTQSPSSLAVSLGERATMSCKSSQSLFNSRTRKNYLAWYQQKPGQSPKLLIYWASARDSGVPARFTGSGSETYFTLTISRVQAEDLAVYYCMQSFNLRTFGQGTKVEIKRTVAAPSVFIFPPSDEQLKSGTASVVCLLNNFYPREAKVQWKVDNALQSGNSQESVTEQDSKDSTYSLSSTLTLSKADYEKHKVYACEVTHQGLSSPVTKSFNRGEC"
